Results taken from patent EP3107577B1 (IBC Pharmaceuticals, Inc., dated 2024).
Read-outs that look alike come from different tables or passages of the source. One block for each binder: values may come before it.

Legend:
[1] = molecular target: T1, mouse CD3 (mouse, UniProt P22646 22-108); experiment: not described (data not shown)
T1 sequence (looked up): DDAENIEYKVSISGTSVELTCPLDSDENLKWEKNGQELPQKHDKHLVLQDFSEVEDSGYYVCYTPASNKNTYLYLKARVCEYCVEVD

[2] = molecular target: T2, mouse Trop-2 (mouse, UniProt Q8BGV3 25-270, limits assumed); experiment: not described (data not shown)
T2 sequence (looked up): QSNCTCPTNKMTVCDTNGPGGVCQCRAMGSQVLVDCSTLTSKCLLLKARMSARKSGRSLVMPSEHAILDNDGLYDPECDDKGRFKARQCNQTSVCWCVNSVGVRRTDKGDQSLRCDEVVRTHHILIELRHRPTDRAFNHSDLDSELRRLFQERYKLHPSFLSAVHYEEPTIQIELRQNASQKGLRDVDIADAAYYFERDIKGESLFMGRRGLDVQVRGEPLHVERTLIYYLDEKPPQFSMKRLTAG

[3] = molecular target: T3, Trop-2 (human, UniProt P09758 27-323); experiment: cell-based or functional assay
T3 sequence (looked up): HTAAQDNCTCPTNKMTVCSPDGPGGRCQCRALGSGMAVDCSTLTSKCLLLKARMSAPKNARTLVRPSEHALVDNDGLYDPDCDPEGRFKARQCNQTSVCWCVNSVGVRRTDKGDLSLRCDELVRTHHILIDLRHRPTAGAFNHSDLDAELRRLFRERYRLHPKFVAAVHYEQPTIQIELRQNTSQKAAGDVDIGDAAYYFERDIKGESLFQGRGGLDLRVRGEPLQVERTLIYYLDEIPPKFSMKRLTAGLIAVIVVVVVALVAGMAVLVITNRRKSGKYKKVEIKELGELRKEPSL

[4] = molecular target: T3, Trop-2; experiment: cell-based or functional assay; remark: listed apart in the source
[5] = molecular target: T3, Trop-2; experiment: assay not described; specificity EGP-1 per Table 11
[6] = molecular target: T3, Trop-2; experiment: as above; remark: listed apart in the source

binding result [1]: no binding | binding result [2]: no binding | EC50, T-cell lysis of NCI-N87 cells, very weak donor T cells [4]: 39 pM | EC50, T-cell lysis of NCI-N87 cells, very weak donor T cells, with peginterferonalfa-2a [4]: 1.4 pM | IC50, T-cell lysis of NCI-N87 cells, donor of very active T cells [4]: 0.37 pM | IC50, T-cell lysis of NCI-N87 cells, with 0.1 nM 20*-2b [4]: 0.05 pM | IC50, T-cell lysis of NCI-N87 cells, with 0.1 nM peginterferonalfa-2a [4]: 0.14 pM | IC50, T-cell mediated lysis of Capan-1 cells [4]: 29 pM | IC50, T-cell mediated lysis of NCI-N87 cells [4]: 0.85 pM
B1: (E1)-3s (bispecific antibody)
scFv: not shown
heavy (part 1 of 2): QVQLQQSGSELKKPGASVKVSCKASGYTFTNYGMNWVKQAPGQGLKWMGWINTYTGEPTYTDDFKGRFAFSLDTSVSTAYLQISSLKADDTAVYFCARGGFGSSYWYFDVWGQGSLVTVSS
heavy (part 2 of 2): not shown
light: DIQLTQSPSSLSASVGDRVSITCKASQDVSIAVAWYQQKPGKAPKLLIYSASYRYTGVPDRFSGSGSGTDFTLTISSLQPEDFAVYYCQQHYITPLTFGAGTKVEIK
notes: also called TROP2-targeting bsAb; anti-human Trop-2 x anti-human CD3 bispecific antibody; not shown: human CH1, hinge residues and Gly/Ser linker; human kappa constant domain
IC50, T cell redirected killing of BxPC3, Donor 1 [3]: 1.06 pM | IC50, T cell redirected killing of BxPC3, Donor 2 [3]: 0.56 pM | IC50, T cell redirected killing of BxPC3, Donor 3 [3]: 0.32 pM | IC50, T cell redirected killing of Capan-1, Donor 1 [3]: 35.6 pM | IC50, T cell redirected killing of Capan-1, Donor 2 [3]: 248 pM | IC50, T cell redirected killing of Capan-1, Donor 4 [3]: 8.51 pM | IC50, T cell redirected killing of NCI-N87, Donor 1 [3]: 6.76 pM | IC50, T cell redirected killing of NCI-N87, Donor 2 [3]: 34 pM | IC50, T-cell killing of BxPC3 cells [4]: 0.4 pM

binding result [5]: binds
B2: C-DDD2-Fab-hRS7 (Fab)
heavy (part 1 of 2): QVQLQQSGSELKKPGASVKVSCKASGYTFTNYGMNWVKQAPGQGLKWMGWINTYTGEPTYTDDFKGRFAFSLDTSVSTAYLQISSLKADDTAVYFCARGGFGSSYWYFDVWGQGSLVTVSS
heavy (part 2 of 2): not shown
light: DIQLTQSPSSLSASVGDRVSITCKASQDVSIAVAWYQQKPGKAPKLLIYSASYRYTGVPDRFSGSGSGTDFTLTISSLQPEDFAVYYCQQHYITPLTFGAGTKVEIK
notes: also called CH1-DDD2-Fab-hRS7; not shown: CH1, hinge residues and linker; kappa constant domain

binding result [6]: binds
B3: C-AD2-IgG-hRS7 (antibody)
heavy (part 1 of 2): QVQLQQSGSELKKPGASVKVSCKASGYTFTNYGMNWVKQAPGQGLKWMGWINTYTGEPTYTDDFKGRFAFSLDTSVSTAYLQISSLKADDTAVYFCARGGFGSSYWYFDVWGQGSLVTVSS
heavy (part 2 of 2): CGQIEYLAKQIVDNAIQQAGC
light: DIQLTQSPSSLSASVGDRVSITCKASQDVSIAVAWYQQKPGKAPKLLIYSASYRYTGVPDRFSGSGSGTDFTLTISSLQPEDFAVYYCQQHYITPLTFGAGTKVEIK
notes: not shown: IgG heavy chain constant region and linker; kappa constant domain
